Source: PMC6511404 (Biochemistry, 2019)

Target: the molecule itself
Assay: SEC

B1: recombinant N-terminal cleavable His-tagged E. coli enolase (enzyme)
chain: MSKIVKIIGREIIDSRGNPTVEAEVHLEGGFVGMAAAPSGASTGSREALELRDGDKSRFLGKGVTKAVAAVNGPIAQALIGKDAKDQAGIDKIMIDLDGTENKSKFGANAILAVSLANAKAAAAAKGMPLYEHIAELNGTPGKYSMPVPMMNIINGGEHADNNVDIQEFMIQPVGAKTVKEAIRMGSEVFHHLAKVLKAKGMNTAVGDEGGYAPNLGSNAEALAVIAEAVKAAGYELGKDITLAMDCAASEFYKDGKYVLAGEGNKAFTSEEFTHFLEELTKQYPIVSIEDGLDESDWDGFAYQTKVLGDKIQLVGDDLFVTNTKILKEGIEKGIANSILIKFNQIGSLTETLAAIKMAKDAGYTAVISHRSGETEDATIADLAVGTAAGQIKTGSMSRSDRVAKYNQLIRIEEALGEKAPYNGRKEIKGQA
stoichiometry N: 2
